Legend:
[1] = molecular target: SH2 domain of the tyrosine kinase Fyn (UniProt P06241); test: isothermal titration calorimetry, 25 C
recombinant FKBP12 = recombinant FKBP12 (UniProt P62942); test: isothermal titration calorimetry, 25 C
[2] = molecular target: recombinant FKBP52 with a tag of six histidine residues at its N-terminus (UniProt Q02790); test: isothermal titration calorimetry, 25 C
[3] = molecular target: SH2 domain of the tyrosine kinase Fyn (UniProt P06241); test: competition with pYEEI beads for radioactive Fyn SH2 domain (200 nM), no FKBP52
[4] = molecular target: SH2 domain of the tyrosine kinase Fyn (UniProt P06241); test: ratio of IC50 values, competition with pYEEI beads
[5] = molecular target: SH2 domain of the tyrosine kinase Fyn (UniProt P06241); test: ratio of Kd values, isothermal titration calorimetry
[6] = molecular target: SH2 domain of the tyrosine kinase Fyn (UniProt P06241); test: competition with pYEEI beads for radioactive Fyn SH2 domain (200 nM), FKBP52 at 4.5 uM
[7] = molecular target: SH2 domain of the tyrosine kinase Fyn (UniProt P06241); test: isothermal titration calorimetry, Fyn SH2 domain binding to the FKpYEEI-FKBP52 complex
[8] = molecular target: phosphotyrosine peptide NH2-pYEEI-COOH; test: radioactive SH2 domain on an increased amount of pYEEI Affi-Gel beads
[9] = molecular target: phosphotyrosine peptide NH2-pYEEI-COOH; test: radioactive SH2 domain (200 nM) on pYEEI Affi-Gel beads, scintillation counting
[10] = molecular target: SH2 domain of the tyrosine kinase Fyn (UniProt P06241); test: competition with pYEEI beads for radioactive Fyn SH2 domain (200 nM), no FKBP12
[11] = molecular target: SH2 domain of the tyrosine kinase Fyn (UniProt P06241); test: competition with pYEEI beads for radioactive Fyn SH2 domain (200 nM), FKBP12 at 20 uM
[12] = molecular target: SH2 domain of the tyrosine kinase Fyn (UniProt P06241); test: isothermal titration calorimetry, Fyn SH2 domain binding to the SLFpYEEI-FKBP12 complex
[13] = molecular target: SH2 domain of the tyrosine kinase Fyn (UniProt P06241); test: competition of free pYEEI with pYEEI beads for radioactive Fyn SH2 domain (200 nM)

Sequence of SH2 domain of the tyrosine kinase Fyn (P06241 143-248): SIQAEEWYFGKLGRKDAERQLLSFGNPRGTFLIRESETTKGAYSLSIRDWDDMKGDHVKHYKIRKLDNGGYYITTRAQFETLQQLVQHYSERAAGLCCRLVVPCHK
Sequence of recombinant FKBP12 (P62942 whole entry): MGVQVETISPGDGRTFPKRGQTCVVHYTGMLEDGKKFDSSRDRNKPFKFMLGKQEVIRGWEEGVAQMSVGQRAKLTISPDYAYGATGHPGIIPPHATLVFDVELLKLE
Sequence of N-terminal SH2 domain of PLC (P19174 550-657): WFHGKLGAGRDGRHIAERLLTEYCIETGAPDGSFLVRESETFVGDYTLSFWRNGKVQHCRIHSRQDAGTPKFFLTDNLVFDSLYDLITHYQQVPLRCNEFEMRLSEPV
Sequence of recombinant FKBP52 with a tag of six histidine residues at its N-terminus (Q02790 whole entry, the tested form may be a part): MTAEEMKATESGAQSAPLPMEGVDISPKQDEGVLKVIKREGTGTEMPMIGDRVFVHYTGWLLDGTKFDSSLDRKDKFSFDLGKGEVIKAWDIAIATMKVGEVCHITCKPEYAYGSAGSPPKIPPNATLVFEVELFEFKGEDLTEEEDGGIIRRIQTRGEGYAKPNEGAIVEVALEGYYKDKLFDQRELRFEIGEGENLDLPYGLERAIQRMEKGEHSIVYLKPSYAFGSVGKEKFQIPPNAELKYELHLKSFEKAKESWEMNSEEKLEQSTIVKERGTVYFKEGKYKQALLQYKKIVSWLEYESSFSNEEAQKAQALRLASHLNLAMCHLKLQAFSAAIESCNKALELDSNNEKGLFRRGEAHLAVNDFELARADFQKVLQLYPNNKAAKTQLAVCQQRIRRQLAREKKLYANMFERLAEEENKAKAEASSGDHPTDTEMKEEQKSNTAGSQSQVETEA

## FKpYEEI (pYEEI peptide chemically linked to FK506)
[1]
  Kd: 520 nM
Recombinant FKBP12
  Kd: 45 nM
[2]
  Kd: 150 nM
[3]
  IC50: 750 nM

## FKpYEEI-FKBP52 complex (binary complex of FKBP52 and FKpYEEI) (from UniProt Q02790 1-459)
[4]
  fold enhancement of affinity against FKpYEEI alone: 3 fold
  fold enhancement of affinity against pYEEI: 4.4 fold
[5]
  fold enhancement of Kd against FKpYEEI alone: 4 fold
[6]
  IC50: 250 nM
[7]
  Kd: 130 nM

## N-terminal SH2 domain of PLC
[8]
  percent of SH2 domain bound to the beads: 40%
[9]
  percent of SH2 domain bound to the beads: 25%

## SH2 domain of the tyrosine kinase Fyn (from UniProt P06241 143-248)
[8]
  percent of SH2 domain bound to the beads: 80%
[9]
  percent of SH2 domain bound to the beads: 65%

## SH2 domain of the tyrosine kinase Lck (from UniProt P06239 120-226)
[8]
  percent of SH2 domain bound to the beads: 25%
[9]
  percent of SH2 domain bound to the beads: 15%

## SLFpYEEI (SLF coupled to the N-terminus of the pYEEI peptide)
[1]
  Kd: 183 nM
Recombinant FKBP12
  Kd: 61 nM
[2]
  Kd: 5000 nM
[10]
  IC50: 250 nM

## SLFpYEEI-FKBP12 complex (binary complex of SLFpYEEI and FKBP12) (from UniProt P62942 1-108)
[4]
  fold reduction of affinity against SLFpYEEI alone: 6 fold
[11]
  IC50: 1500 nM
[12]
  Kd: 1500 nM

## phosphotyrosine peptide NH2-pYEEI-COOH
[13]
  IC50: 1100 nM

Source: patent publication US20020147133A1
